B1: COVA1-16 Fab (Fab, V domains shown)
VH: QVQLVQSGAEVKKPGASVKVSCKASGYTFTSYYMHWVRQAPGQGLEWMGIINSSGGSTSYAQKFQGRVTMTRDTSTSTVYMELSSLRSEDTAVYYCARPPRNYYDRSGYYQRAEYFQHWGQGTLVTVSS
VL: DIQLTQSPSSLSASVGDRVTITCQASQDISNYLNWYQQRPGKAPKLLIYDASNLETGVPSRFSGSGSGTDFTFTISSLQPEDIATYYCQQYDNPPLTFGGGTKLEIK
B2: COVA1-16 Fab (Fab, V domains shown)
VH: B1 VH
VL: B1 VL

Columns and labels:
[1] = target: SARS-CoV-2 RBD, truncated version (residues 333 to 529) used for crystallization (SARS-CoV-2, UniProt P0DTC2); experiment: crystal structure; conditions: both partners purified
[2] = target: SARS-CoV-2 RBD, truncated version (residues 333 to 529) (SARS-CoV-2, UniProt P0DTC2); experiment: crystal structure; conditions: both partners purified

| Binder | binding result [1] | binding result [2] |
| --- | --- | --- |
| B1 | binds |  |
| B2 |  | binds |
